Measurements from the RNAGym collection of RNA variant scans (doi:10.1101/gr.219683.116).

B1: mRNA-splicing (parent)
chain: AGUUGCUGCUGGGAGCUCCAGCACAGUGAAAUGGACAGAAGGGCAGAGCAA

Variants of: B1
Experiment: exon inclusion enrichment index; higher = more inclusion; WT1 exon 5 minigene, HEK293

Row | Variant | exon inclusion enrichment index
1 | G5C C6G U7C U10C U32A G33U | 2.76
2 | G5C C6G U7C U10C U32C | 4.75
3 | G5C C6G U7C U10C U32C G33A | 2.09
4 | G5C C6G U7C U10C U32C G33C | 3.68
5 | G5C C6G U7C U10C U32C G33U | 2.45
6 | G5C C6G U7C U10C U32G | 0.601
7 | G5C C6G U7C U10C U32G G33A | 1.79
8 | G5C C6G U7C U10C U32G G33C | 3.31
9 | G5C C6G U7C U10C U32G G33U | 1.88
10 | G5C C6G U7C U10G | 1.86
11 | G5C C6G U7C U10G G11A | 2.98
12 | G5C C6G U7C U10G G11C | 2.32
13 | G5C C6G U7C U10G G11U | 2.66
14 | G5C C6G U7G C9A | 1.02
15 | G5C C6G U7G G8A U10A | 0.218
16 | G5C C6G U7G G8A U10C | 2.87
17 | G5C C6G U7G G8C C9U U10C | 2.15
18 | G5C C6G U7G G8C U10C | 1.57
19 | G5C C6G U7G G8U U10C | 1.74
20 | G5C C6G U7G U10C | 1.51
21 | G5C C6G U10C | 2.11
22 | G5C C6U | 0.0627
23 | G5C C6U C9A U10C | 1.69
24 | G5C C6U C9G U10C | 1.31

Row | Variant | exon inclusion enrichment index
25 | G5C C6U C9U U10C | 1.13
26 | G5C C6U G8A C9A U10C | 0.564
27 | G5C C6U G8A C9G U10C | 0.184
28 | G5C C6U G8A C9U U10C | 0.941
29 | G5C C6U G8A U10A | 0.0597
30 | G5C C6U G8A U10C | 1.18
31 | G5C C6U G8C | 1.8
32 | G5C C6U G8C C9A | 1.7
33 | G5C C6U G8C C9A U10A | 1.21
34 | G5C C6U G8C C9A U10C | 2.36
35 | G5C C6U G8C C9A U10G | 0.812
36 | G5C C6U G8C C9G | 3.5
37 | G5C C6U G8C C9G U10A | 3.12
38 | G5C C6U G8C C9G U10C | 3.48
39 | G5C C6U G8C C9G U10G | 3.42
40 | G5C C6U G8C C9U | 1.16
41 | G5C C6U G8C C9U G11A | 0.125
42 | G5C C6U G8C C9U G11C | 2.09
43 | G5C C6U G8C C9U G11U | 0.905
44 | G5C C6U G8C C9U U10A | 0.186
45 | G5C C6U G8C C9U U10A G11A | 0.661
46 | G5C C6U G8C C9U U10A G11C | 1.84
47 | G5C C6U G8C C9U U10A G11U | 0.953
48 | G5C C6U G8C C9U U10C | 2.2

Row | Variant | exon inclusion enrichment index
49 | G5C C6U G8C C9U U10C A14C | 1.3
50 | G5C C6U G8C C9U U10C A14C G15A | 0.459
51 | G5C C6U G8C C9U U10C A14C G15C | 0.406
52 | G5C C6U G8C C9U U10C A14C G15U | 0.523
53 | G5C C6U G8C C9U U10C A14G | 1.2
54 | G5C C6U G8C C9U U10C A14G G15A | 1.17
55 | G5C C6U G8C C9U U10C A14G G15C | 0.826
56 | G5C C6U G8C C9U U10C A14G G15U | 0.546
57 | G5C C6U G8C C9U U10C A14U | 0.661
58 | G5C C6U G8C C9U U10C A14U G15A | 0.472
59 | G5C C6U G8C C9U U10C A14U G15C | 0.66
60 | G5C C6U G8C C9U U10C A14U G15U | 0.556
61 | G5C C6U G8C C9U U10C A20C | 1.41
62 | G5C C6U G8C C9U U10C A20C G21A | 0.599
63 | G5C C6U G8C C9U U10C A20C G21C | 0.524
64 | G5C C6U G8C C9U U10C A20C G21U | 0.926
65 | G5C C6U G8C C9U U10C A20G | 2.69
66 | G5C C6U G8C C9U U10C A20G G21A | 2.38
67 | G5C C6U G8C C9U U10C A20G G21C | 1.71
68 | G5C C6U G8C C9U U10C A20G G21U | 2.01
69 | G5C C6U G8C C9U U10C A20U | 2.17
70 | G5C C6U G8C C9U U10C A20U G21A | 0.91
71 | G5C C6U G8C C9U U10C A20U G21C | 1.62
72 | G5C C6U G8C C9U U10C A20U G21U | 1.12

Row | Variant | exon inclusion enrichment index
73 | G5C C6U G8C C9U U10C A23C | 1.9
74 | G5C C6U G8C C9U U10C A23C C24A | 2.31
75 | G5C C6U G8C C9U U10C A23C C24G | 3.11
76 | G5C C6U G8C C9U U10C A23C C24U | 0.867
77 | G5C C6U G8C C9U U10C A23G | 2.93
78 | G5C C6U G8C C9U U10C A23G C24A | 3.38
79 | G5C C6U G8C C9U U10C A23G C24G | 3.51
80 | G5C C6U G8C C9U U10C A23G C24U | 0.696
81 | G5C C6U G8C C9U U10C A23U | 1.39
82 | G5C C6U G8C C9U U10C A23U C24A | 0.79
83 | G5C C6U G8C C9U U10C A23U C24G | 2.38
84 | G5C C6U G8C C9U U10C A23U C24U | 0.198
85 | G5C C6U G8C C9U U10C A25C | 3.42
86 | G5C C6U G8C C9U U10C A25C G26A | 3.25
87 | G5C C6U G8C C9U U10C A25C G26C | 2.25
88 | G5C C6U G8C C9U U10C A25C G26U | 2.7
89 | G5C C6U G8C C9U U10C A25G | 3.66
90 | G5C C6U G8C C9U U10C A25G G26A | 4.14
91 | G5C C6U G8C C9U U10C A25G G26C | 3.56
92 | G5C C6U G8C C9U U10C A25G G26U | 2.71
93 | G5C C6U G8C C9U U10C A25U | 2.6
94 | G5C C6U G8C C9U U10C A25U G26A | 2.23
95 | G5C C6U G8C C9U U10C A25U G26C | 2.38
96 | G5C C6U G8C C9U U10C A25U G26U | 1.7

Row | Variant | exon inclusion enrichment index
97 | G5C C6U G8C C9U U10C A29C | 1.75
98 | G5C C6U G8C C9U U10C A29C A30C | 2.52
99 | G5C C6U G8C C9U U10C A29C A30G | 3.25
100 | G5C C6U G8C C9U U10C A29C A30U | 1.18
101 | G5C C6U G8C C9U U10C A29G | 2.54
102 | G5C C6U G8C C9U U10C A29G A30C | 0.838
103 | G5C C6U G8C C9U U10C A29G A30G | 1.37
104 | G5C C6U G8C C9U U10C A29G A30U | 0.538
105 | G5C C6U G8C C9U U10C A29U | 0.63
106 | G5C C6U G8C C9U U10C A29U A30C | 1.51
107 | G5C C6U G8C C9U U10C A29U A30G | 2.16
108 | G5C C6U G8C C9U U10C A29U A30U | 0.629
109 | G5C C6U G8C C9U U10C A30C | 2.23
110 | G5C C6U G8C C9U U10C A30C A31C | 2.9
111 | G5C C6U G8C C9U U10C A30C A31G | 3.01
112 | G5C C6U G8C C9U U10C A30C A31U | 2.1
113 | G5C C6U G8C C9U U10C A30G | 2.12
114 | G5C C6U G8C C9U U10C A30G A31C | 0.276
115 | G5C C6U G8C C9U U10C A30G A31G | 0.469
116 | G5C C6U G8C C9U U10C A30G A31U | 0.63
117 | G5C C6U G8C C9U U10C A30U | 1.34
118 | G5C C6U G8C C9U U10C A30U A31C | 1.95
119 | G5C C6U G8C C9U U10C A30U A31G | 2.12
120 | G5C C6U G8C C9U U10C A30U A31U | 1.52

Row | Variant | exon inclusion enrichment index
121 | G5C C6U G8C C9U U10C A31C | 2.29
122 | G5C C6U G8C C9U U10C A31C U32A | 1.46
123 | G5C C6U G8C C9U U10C A31C U32C | 3.49
124 | G5C C6U G8C C9U U10C A31C U32G | 2.49
125 | G5C C6U G8C C9U U10C A31G | 2.47
126 | G5C C6U G8C C9U U10C A31G U32A | 3.83
127 | G5C C6U G8C C9U U10C A31G U32C | 3.89
128 | G5C C6U G8C C9U U10C A31G U32G | 1.04
129 | G5C C6U G8C C9U U10C A31U | 1.74
130 | G5C C6U G8C C9U U10C A31U U32A | 0.179
131 | G5C C6U G8C C9U U10C A31U U32C | 2.61
132 | G5C C6U G8C C9U U10C A31U U32G | 1.04
133 | G5C C6U G8C C9U U10C A35C | 0.541
134 | G5C C6U G8C C9U U10C A35C C36A | 1.37
135 | G5C C6U G8C C9U U10C A35C C36G | 1.57
136 | G5C C6U G8C C9U U10C A35C C36U | 0.258
137 | G5C C6U G8C C9U U10C A35G | 0.766
138 | G5C C6U G8C C9U U10C A35G C36A | 1.07
139 | G5C C6U G8C C9U U10C A35G C36G | 0.14
140 | G5C C6U G8C C9U U10C A35G C36U | 0.016
141 | G5C C6U G8C C9U U10C A35U | 0.452
142 | G5C C6U G8C C9U U10C A35U C36A | 0.00287
143 | G5C C6U G8C C9U U10C A35U C36G | 0.181
144 | G5C C6U G8C C9U U10C A35U C36U | 0.0294

Row | Variant | exon inclusion enrichment index
145 | G5C C6U G8C C9U U10C A37C | 3.08
146 | G5C C6U G8C C9U U10C A37C G38A | 1.63
147 | G5C C6U G8C C9U U10C A37C G38C | 1.95
148 | G5C C6U G8C C9U U10C A37C G38U | 1.2
149 | G5C C6U G8C C9U U10C A37G | 2.83
150 | G5C C6U G8C C9U U10C A37G G38A | 1.79
151 | G5C C6U G8C C9U U10C A37G G38C | 2.08
152 | G5C C6U G8C C9U U10C A37G G38U | 0.627
153 | G5C C6U G8C C9U U10C A37U | 1.73
154 | G5C C6U G8C C9U U10C A37U G38A | 0.713
155 | G5C C6U G8C C9U U10C A37U G38C | 1.03
156 | G5C C6U G8C C9U U10C A37U G38U | 0.446
157 | G5C C6U G8C C9U U10C A39C | 0.436
158 | G5C C6U G8C C9U U10C A39C A40C | 2.43
159 | G5C C6U G8C C9U U10C A39C A40G | 2.03
160 | G5C C6U G8C C9U U10C A39C A40U | 1.13
161 | G5C C6U G8C C9U U10C A39G | 0.96
162 | G5C C6U G8C C9U U10C A39G A40C | 1.79
163 | G5C C6U G8C C9U U10C A39G A40G | 0.186
164 | G5C C6U G8C C9U U10C A39G A40U | 0.232
165 | G5C C6U G8C C9U U10C A39U | 0.0783
166 | G5C C6U G8C C9U U10C A39U A40C | 2.16
167 | G5C C6U G8C C9U U10C A39U A40G | 0.572
